Measurements published in the Human Domainome abundance scans (Beltran et al. 2025).
± gives the uncertainty stated by the source.

B1: Tumor protein p73, residues 487 to 549; numbered along this chain, O15350 (parent)
chain: YHADPSLVSFLTGLGCPNCIEYFTSQGLQSIYHLQNLTIEDLGALKIPEQYRMTIWRGLQDLK

Variants of: B1
Experiment: abundance fitness (aPCA) (normalised: wild type 0, dead -1); higher = more abundant; growth selection in yeast, the domain comes from the species named
Conditions: Homo sapiens

First: S9R
Second: S9D
The abundance fitness of the first is higher: 0.048 ± 0.023 for the first, -0.114 ± 0.098 for the second.

Compared with S9P, S9G is higher in abundance fitness: -0.134 ± 0.054 for the first, 0.103 ± 0.028 for the second.

Going from S9T to S9C, the abundance fitness falls from -0.052 ± 0.049 to -0.312 ± 0.059.

S9E and S9N are within error of each other in abundance fitness: -0.019 ± 0.04 for the first, 0.086 ± 0.074 for the second.

First: S9W
Second: S9F
The abundance fitness of the first is lower: -0.411 ± 0.048 for the first, -0.194 ± 0.056 for the second.

Compared with S9Q, P5E is higher in abundance fitness: 0.095 ± 0.04 for the first, 0.24 ± 0.049 for the second.

First: P5Q
Second: P5R
The abundance fitness of the first is lower: -0.005 ± 0.055 for the first, 0.085 ± 0.033 for the second.

First: L34V
Second: L34R
The abundance fitness of the first is higher: 0.038 ± 0.028 for the first, -0.867 ± 0.077 for the second.

L34P and L34D are within error of each other in abundance fitness: -0.671 ± 0.12 for the first, -0.835 ± 0.12 for the second.

L34T and N18A are within error of each other in abundance fitness: 0.018 ± 0.045 for the first, 0.042 ± 0.038 for the second.

N18Q and N18T are within error of each other in abundance fitness: -0.03 ± 0.037 for the first, -0.084 ± 0.042 for the second.

First: N18I
Second: N18P
The abundance fitness of the first is higher: 0.005 ± 0.079 for the first, -0.288 ± 0.053 for the second.

G43T and G43C are within error of each other in abundance fitness: 0.003 ± 0.052 for the first, -0.049 ± 0.21 for the second.

First: G43W
Second: G43L
The abundance fitness of the first is lower: -0.135 ± 0.056 for the first, 0.033 ± 0.046 for the second.

Going from G43R to I31E, the abundance fitness falls from -0.016 ± 0.042 to -0.129 ± 0.045.

Going from I31Y to I31L, the abundance fitness rises from -0.133 ± 0.064 to 0.035 ± 0.037.

First: I31G
Second: I31T
The abundance fitness of the first is lower: -0.199 ± 0.038 for the first, -0.005 ± 0.05 for the second.

I47E and I47P are within error of each other in abundance fitness: -1.06 ± 0.11 for the first, -1.07 ± 0.17 for the second.

First: I47N
Second: I47V
The abundance fitness of the first is lower: -0.413 ± 0.15 for the first, 0.071 ± 0.026 for the second.

First: I47Y
Second: G27T
The abundance fitness of the first is lower: -0.824 ± 0.17 for the first, -0.172 ± 0.075 for the second.

Going from G27M to G27K, the abundance fitness rises from -0.716 ± 0.069 to -0.089 ± 0.043.

L42C and L42I are within error of each other in abundance fitness: -0.494 ± 0.15 for the first, -0.215 ± 0.13 for the second.

L42A and L42H are within error of each other in abundance fitness: -0.447 ± 0.048 for the first, -0.577 ± 0.17 for the second.

L42Q and L42K are within error of each other in abundance fitness: -0.512 ± 0.063 for the first, -0.515 ± 0.079 for the second.

Compared with I55Q, I55P is lower in abundance fitness: -0.5 ± 0.098 for the first, -1.08 ± 0.16 for the second.

I55L and I55V are within error of each other in abundance fitness: -0.091 ± 0.039 for the first, -0.041 ± 0.044 for the second.

First: I55K
Second: I55C
The abundance fitness of the first is lower: -1.01 ± 0.14 for the first, -0.459 ± 0.079 for the second.

Y1I and Y1P are within error of each other in abundance fitness: 0.336 ± 0.16 for the first, 0.161 ± 0.14 for the second.

Going from Y1E to Y1G, the abundance fitness falls from 0.01 ± 0.063 to -0.285 ± 0.051.

Y1N and Y1V are within error of each other in abundance fitness: 0.054 ± 0.13 for the first, 0.173 ± 0.044 for the second.

Q26I and Q26C are within error of each other in abundance fitness: -0.163 ± 0.33 for the first, -0.057 ± 0.052 for the second.

Going from Q26F to Q26R, the abundance fitness rises from -0.18 ± 0.077 to 0.001 ± 0.034.

Going from Q26Y to Q26N, the abundance fitness rises from -0.32 ± 0.098 to 0.109 ± 0.072.

First: Q26W
Second: W56F
The abundance fitness of the first is lower: -0.286 ± 0.042 for the first, 0.075 ± 0.07 for the second.

Going from W56A to W56D, the abundance fitness falls from 0.014 ± 0.037 to -0.241 ± 0.056.

Compared with Q50Y, Q50A is higher in abundance fitness: -0.297 ± 0.086 for the first, 0.08 ± 0.035 for the second.

Compared with Q50C, Q50P is lower in abundance fitness: 0.096 ± 0.059 for the first, -0.132 ± 0.054 for the second.

Q50S and Q50G are within error of each other in abundance fitness: 0.045 ± 0.034 for the first, 0.111 ± 0.04 for the second.

Q50W and Q50D are within error of each other in abundance fitness: -0.135 ± 0.03 for the first, -0.106 ± 0.2 for the second.

Y51F and Y51S are within error of each other in abundance fitness: -0.032 ± 0.14 for the first, -0.126 ± 0.055 for the second.

Going from Y51E to G58I, the abundance fitness falls from -0.09 ± 0.049 to -0.68 ± 0.38.

Going from G58H to G58N, the abundance fitness falls from -0.116 ± 0.11 to -0.36 ± 0.078.

First: G58Y
Second: G58S
The abundance fitness of the first is lower: -0.723 ± 0.28 for the first, -0.104 ± 0.047 for the second.

Going from G58R to A44C, the abundance fitness rises from -0.197 ± 0.046 to 0.02 ± 0.058.

Compared with A44L, A44W is lower in abundance fitness: 0.06 ± 0.034 for the first, -0.083 ± 0.038 for the second.

First: A44E
Second: A44I
The abundance fitness of the first is higher: 0.16 ± 0.055 for the first, -0.218 ± 0.2 for the second.

First: R52P
Second: R52Q
The abundance fitness of the first is lower: -0.755 ± 0.095 for the first, -0.019 ± 0.046 for the second.

R52W and R52Y are within error of each other in abundance fitness: -0.082 ± 0.048 for the first, 0.095 ± 0.24 for the second.

L28V and L28Q are within error of each other in abundance fitness: -0.008 ± 0.028 for the first, -0.038 ± 0.042 for the second.

L28N and L28T are within error of each other in abundance fitness: -0.241 ± 0.072 for the first, -0.186 ± 0.046 for the second.

Going from L28M to L28F, the abundance fitness rises from 0.042 ± 0.051 to 0.175 ± 0.077.

First: L28P
Second: L7Q
The abundance fitness of the first is higher: -0.286 ± 0.069 for the first, -1.01 ± 0.12 for the second.

Going from L7G to L7A, the abundance fitness rises from -0.936 ± 0.071 to -0.257 ± 0.046.

Q60G and Q60F are within error of each other in abundance fitness: -0.027 ± 0.03 for the first, -0.096 ± 0.071 for the second.

Q60N and Q60M are within error of each other in abundance fitness: 0.089 ± 0.057 for the first, 0.031 ± 0.046 for the second.

Q60T and Q60E are within error of each other in abundance fitness: -0.017 ± 0.079 for the first, 0.101 ± 0.044 for the second.

Q60A and G13S are within error of each other in abundance fitness: 0.047 ± 0.027 for the first, 0.034 ± 0.038 for the second.

Compared with G13H, G13P is lower in abundance fitness: 0.11 ± 0.058 for the first, -0.183 ± 0.064 for the second.

G13Y and G13W are within error of each other in abundance fitness: -0.185 ± 0.093 for the first, -0.315 ± 0.051 for the second.

First: G13N
Second: G13M
The abundance fitness of the first is higher: 0.216 ± 0.22 for the first, -0.075 ± 0.048 for the second.

First: S25P
Second: R57E
The abundance fitness of the first is lower: -0.179 ± 0.052 for the first, -0.058 ± 0.057 for the second.

R57D and R57G are within error of each other in abundance fitness: 0.011 ± 0.26 for the first, -0.01 ± 0.046 for the second.

Going from R57V to R57S, the abundance fitness rises from -0.255 ± 0.051 to -0.114 ± 0.043.

V8D and V8Y are within error of each other in abundance fitness: 0.143 ± 0.15 for the first, -0.016 ± 0.086 for the second.

First: V8R
Second: V8F
The abundance fitness of the first is higher: 0.132 ± 0.033 for the first, -0.045 ± 0.079 for the second.

Compared with V8L, F23P is lower in abundance fitness: 0.137 ± 0.034 for the first, -0.907 ± 0.16 for the second.

Going from F23E to F23I, the abundance fitness rises from -1.05 ± 0.15 to -0.277 ± 0.14.

F23G and F23H are within error of each other in abundance fitness: -0.995 ± 0.075 for the first, -0.81 ± 0.27 for the second.

First: F23Y
Second: F23L
The abundance fitness of the first is lower: -0.638 ± 0.12 for the first, -0.182 ± 0.037 for the second.

F23R and F23S are within error of each other in abundance fitness: -1.14 ± 0.15 for the first, -1.03 ± 0.087 for the second.

Compared with C16H, C16S is lower in abundance fitness: -0.047 ± 0.054 for the first, -0.389 ± 0.059 for the second.

First: C16P
Second: L45S
The abundance fitness of the first is lower: -1.01 ± 0.27 for the first, -0.272 ± 0.04 for the second.

Compared with L45I, L45W is lower in abundance fitness: 0.067 ± 0.076 for the first, -0.345 ± 0.047 for the second.

L45G and L45E are within error of each other in abundance fitness: -0.517 ± 0.046 for the first, -0.553 ± 0.07 for the second.

L45Y and L45M are within error of each other in abundance fitness: 0.04 ± 0.1 for the first, 0.023 ± 0.038 for the second.

First: T38V
Second: T38P
The abundance fitness of the first is higher: -0.106 ± 0.033 for the first, -0.201 ± 0.054 for the second.

T38L and T38D are within error of each other in abundance fitness: -0.158 ± 0.037 for the first, -0.215 ± 0.16 for the second.

T38S and T38C are within error of each other in abundance fitness: 0.018 ± 0.035 for the first, -0.073 ± 0.073 for the second.

T54D and T54E are within error of each other in abundance fitness: -0.01 ± 0.065 for the first, -0.061 ± 0.07 for the second.

First: T54Y
Second: T54I
The abundance fitness of the first is lower: -0.189 ± 0.069 for the first, 0.025 ± 0.062 for the second.

T54H and P17F are within error of each other in abundance fitness: 0.071 ± 0.087 for the first, 0.036 ± 0.061 for the second.

P17K and P17E are within error of each other in abundance fitness: 0.075 ± 0.04 for the first, 0.047 ± 0.039 for the second.

First: P17Q
Second: P17N
The abundance fitness of the first is higher: 0.106 ± 0.053 for the first, -0.154 ± 0.14 for the second.

P17I gave an abundance fitness of -0.122 ± 0.087.
